In patent US20210063414A1, “METHODS FOR PREVENTING AND/OR TREATING BONE LOSS CONDITIONS BY MODULATING IRISIN” (Dana-Farber Cancer Institute, Inc., priority 2018, published 2021):

What was measured:
Experiment in all cases: Crosslinking/co-immunoprecipitation/mass spectrometry (TMT quantitative proteomics) to identify irisin receptors
Assay type in all cases: binding
[1] = molecular target: T1, MLO-Y4 cell surface proteins (Mus musculus, UniProt P09671); settings: co-precipitated protein Sod2 (SODM_MOUSE)
T1 construct: endogenous in cells; host or cells: MLO-Y4
T1 sequence (P09671 25-222): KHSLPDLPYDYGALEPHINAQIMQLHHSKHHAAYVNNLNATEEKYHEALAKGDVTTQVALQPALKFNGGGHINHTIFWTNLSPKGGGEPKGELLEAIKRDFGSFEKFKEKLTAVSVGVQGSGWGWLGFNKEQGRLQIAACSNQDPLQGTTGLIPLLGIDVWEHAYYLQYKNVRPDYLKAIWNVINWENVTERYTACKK
How it was run: (§1)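 Mouse MLO-Y4 cells were switched to serum-free FreeStyle medium for 4 h, chilled, then exposed to 10 nM His-tagged irisin (or adipsin as control) for 20 min. Cells were crosslinked with 1.5 mM DTSSP (30 min, ice), and bound proteins were pulled down on Ni-NTA and eluted with 250 mM imidazole. Eluates were separated by SDS-PAGE, trypsin-digested in gel, TMT 6-plex labelled and quantified by MS3-based LC-MS/MS on an Orbitrap Fusion Lumos.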

[2] = molecular target: T2, MLO-Y4 cell surface proteins (Mus musculus, UniProt Q8BFT2); settings: co-precipitated protein Haus4 (HAUS4_MOUSE)
T2 construct: endogenous in cells; host or cells: MLO-Y4
T2 sequence (Q8BFT2 1-363): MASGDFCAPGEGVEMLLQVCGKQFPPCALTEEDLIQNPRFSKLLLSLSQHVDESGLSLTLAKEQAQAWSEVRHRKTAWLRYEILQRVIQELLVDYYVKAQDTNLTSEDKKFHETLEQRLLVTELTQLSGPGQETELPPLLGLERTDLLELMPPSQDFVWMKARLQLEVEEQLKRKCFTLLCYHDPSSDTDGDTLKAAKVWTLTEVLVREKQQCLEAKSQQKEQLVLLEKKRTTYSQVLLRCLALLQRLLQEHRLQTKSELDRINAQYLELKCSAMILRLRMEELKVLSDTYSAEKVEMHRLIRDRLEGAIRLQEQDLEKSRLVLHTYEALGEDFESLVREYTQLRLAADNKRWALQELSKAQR
How it was run: as §1

[3] = molecular target: T3, MLO-Y4 cell surface proteins (Mus musculus, UniProt P97360); settings: co-precipitated protein Etv6 (ETV6_MOUSE)
T3 construct: endogenous in cells; host or cells: MLO-Y4
T3 sequence (P97360 1-485): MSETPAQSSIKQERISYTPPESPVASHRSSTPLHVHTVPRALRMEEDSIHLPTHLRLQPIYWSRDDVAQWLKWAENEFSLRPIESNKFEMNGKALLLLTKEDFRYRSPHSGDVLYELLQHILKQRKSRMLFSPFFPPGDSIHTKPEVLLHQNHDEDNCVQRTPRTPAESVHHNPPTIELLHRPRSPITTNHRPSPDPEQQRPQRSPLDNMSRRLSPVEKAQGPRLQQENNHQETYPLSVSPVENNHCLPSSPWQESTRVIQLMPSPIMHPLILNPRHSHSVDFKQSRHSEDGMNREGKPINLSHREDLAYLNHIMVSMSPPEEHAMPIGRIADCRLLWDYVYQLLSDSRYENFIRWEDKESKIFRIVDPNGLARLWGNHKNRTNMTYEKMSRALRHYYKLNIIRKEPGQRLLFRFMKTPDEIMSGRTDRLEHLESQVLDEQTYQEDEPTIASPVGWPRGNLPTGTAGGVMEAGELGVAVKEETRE
How it was run: as §1

[4] = molecular target: T4, MLO-Y4 cell surface proteins (Mus musculus, UniProt Q9JHS4); settings: co-precipitated protein Clpx (CLPX_MOUSE)
T4 construct: endogenous in cells; host or cells: MLO-Y4
How it was run: as §1

T4 sequence (Q9JHS4 57-634): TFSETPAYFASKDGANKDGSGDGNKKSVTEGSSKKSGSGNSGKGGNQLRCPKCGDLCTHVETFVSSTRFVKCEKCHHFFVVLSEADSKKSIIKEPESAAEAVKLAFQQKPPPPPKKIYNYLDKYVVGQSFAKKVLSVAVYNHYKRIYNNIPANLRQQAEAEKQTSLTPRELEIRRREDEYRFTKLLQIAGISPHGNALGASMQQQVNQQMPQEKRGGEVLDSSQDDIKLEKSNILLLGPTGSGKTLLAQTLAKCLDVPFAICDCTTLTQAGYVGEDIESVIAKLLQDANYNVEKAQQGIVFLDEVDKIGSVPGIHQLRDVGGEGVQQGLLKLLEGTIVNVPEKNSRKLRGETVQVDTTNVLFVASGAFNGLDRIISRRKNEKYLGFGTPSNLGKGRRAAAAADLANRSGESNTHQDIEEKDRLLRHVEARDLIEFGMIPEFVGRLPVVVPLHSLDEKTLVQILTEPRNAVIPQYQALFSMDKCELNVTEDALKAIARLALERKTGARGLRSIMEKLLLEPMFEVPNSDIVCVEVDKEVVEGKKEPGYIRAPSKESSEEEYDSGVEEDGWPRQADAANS

B1: irisin: secreted cleaved form of FNDC5; recombinant human/mouse irisin with C-terminal his tag produced in HEK293 cells (protein)
chain: DSPSAPVNVTVRHLKANSAVVSWDVLEDEVVIGFAISQQKKDVRMLRFIQEVNTTTRSCALWDLEEDTEYIVHVQAISIQGQSPASEPVLFKTPREAEKMASKNKDEVTMKE
modifications: left off: small tags and cut ends
notes: secreted cleaved form of FNDC5; recombinant human/mouse irisin with C-terminal his tag produced in HEK293 cells
[1]
  TMT signal-to-noise ratio: 472.133
  irisin/adipsin TMT signal-to-noise ratio: 0.458
[2]
  TMT signal-to-noise ratio: 230.984
  irisin/adipsin TMT signal-to-noise ratio: 0.446
[3]
  TMT signal-to-noise ratio: 74.6472
  irisin/adipsin TMT signal-to-noise ratio: 0.544
[4]
  TMT signal-to-noise ratio: 851.066
  irisin/adipsin TMT signal-to-noise ratio: 0.561
